What was measured:
[1] = immunofluorescence, RBE cells; settings: glycan lost; control: FLAG-K18WT
[2] = [U-13C6] glucose tracing, LC-MS/MS, HuCCT1; settings: glycan lost; control: shK18 + WT
[3] = CHX chase 8 h, FLAG-K18 remaining by blot; settings: glycan lost; control: FLAG-K18-WT
[4] = HA-ubiquitin, MG-132, anti-FLAG IP, anti-HA blot; settings: glycan lost; control: FLAG-K18-WT
[5] = CHX chase up to 8 h, K18 remaining by blot; settings: glycan lost; control: DMSO

| Protein | other: filament organisation [1] | other: TCA cycle metabolite levels [2] | degradation_or_half_life [3] | other: ubiquitination [4] | degradation_or_half_life [5] |
| --- | --- | --- | --- | --- | --- |
| Keratin 18 (K18): S30A (protein) parent chain: MSFTTRSTFSTNYRSLGSVQAPSYGARPVSSAASVYAGAGGSGSRISVSRSTSFRGGMGSGGLATGIAGGLAGMGGIQNEKETMQSLNDRLASYLDRVRSLETENRRLESKIREHLEKKGPQVRDWSHYFKIIEDLRAQIFANTVDNARIVLQIDNARLAADDFRVKYETELAMRQSVENDIHGLRKVIDDTNITRLQLETEIEALKEELLFMKKNHEEEVKGLQAQIASSGLTVEVDAPKSQDLAKIMADIRAQYDELARKNREELDKYWSQQIEESTTVVTTQSAEVGAAETTLTELRRTVQSLEIDLDSMRNLKASLENSLREVEARYALQMEQLNGILLHLESELAQTRAEGQRQAQEYEALLNIKVKLEAEIATYRRLLEDGEDFNLGDALDSSNSMQTIQKTTTRRIVDGKVVSETNDTKVLRH | changes | changes | decreases | increases | – |
| Keratin 18 (K18): 5S (Ac45SGlcNAc) (protein) parent chain: MSFTTRSTFSTNYRSLGSVQAPSYGARPVSSAASVYAGAGGSGSRISVSRSTSFRGGMGSGGLATGIAGGLAGMGGIQNEKETMQSLNDRLASYLDRVRSLETENRRLESKIREHLEKKGPQVRDWSHYFKIIEDLRAQIFANTVDNARIVLQIDNARLAADDFRVKYETELAMRQSVENDIHGLRKVIDDTNITRLQLETEIEALKEELLFMKKNHEEEVKGLQAQIASSGLTVEVDAPKSQDLAKIMADIRAQYDELARKNREELDKYWSQQIEESTTVVTTQSAEVGAAETTLTELRRTVQSLEIDLDSMRNLKASLENSLREVEARYALQMEQLNGILLHLESELAQTRAEGQRQAQEYEALLNIKVKLEAEIATYRRLLEDGEDFNLGDALDSSNSMQTIQKTTTRRIVDGKVVSETNDTKVLRH | – | – | – | – | decreases |

From publication PMC11117311
